Values of other authors, collected in publication PMC1617126.

Biological target: protective antigen (PA) (Bacillus anthracis) (UniProt P13423)

Question: For ANTXR2 I domain (from UniProt P58335), which Kd is on record?
Answer: 960 nM
